# Assay: yeast display, Sf9 membrane polyspecificity reagent, FACS + sequencing; frameworks hold sequencing errors
# Summary of the method: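 Polyreactivity labels are assigned by the sorting gate from which each nanobody was recovered. The gates were low and high (top ~1%), set on anti-HA fluorescence for expression and streptavidin fluorescence for reagent binding. Before sorting, galactose-induced (36–48 hours) yeast display cells were stained for 1 hour at 4 °C with 10% biotinylated, detergent-solubilized Sf9 membrane reagent.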
row,Sequence,polyreactivity (PSR sort gate)
1,QVQLVESGGGLVQAGGSLRLSCAASGRIFSIYGMGWYRQAPGKERELVAVISGSVGITYYADSVKGRFTISRDNAKHTVYLQMNSLKPEDTAVYYCNAKVRRRKYDYWGQGTQVTVSS,high polyreactivity
2,QVQLVESGGGLVQAGGSLRLSCAASGRIFSKYTMGWYRQAPGKERELVAAISGSGTSTYYADSVKGRFTISRDNAKNTVYLQMNSLKPEDTAVYYCNAVKSWGHPGRYYWGQGTQVTVSS,high polyreactivity
3,QVQLVESGGGLVQAGGSLRLSCAASGRIFSLNAMGWYRQAPGKERELVAGIRKRGGSTYYADSVKGRFTISRDNAKNTVYLQMNSLKPEDTAVYYCAADRFAFYGRYRGPYYYWGHGTQVTVSS,high polyreactivity
4,QVQLVESGGGLVQAGGSLRLSCAASGRIFSLNDMGWYRQAPGKERELVATIRGRGTSTYYADSVKGRFTISRDNAKNTVYLQMNSLKPEDTAVYYCAARGHGAYGYWGQGSQVTVSS,low polyreactivity
5,QVQLVESGGGLVQAGGSLRLSCAASGRIFSLNTMGWYRQAPGKERELVATITKRGGNTYYADSVKGRFTISRDNAKNTVYLQMNSLKPEDTAVYYCAVPRSITYRYGYWGQGTQVTVSS,high polyreactivity
6,QVQLVESGGGLVQAGGSLRLSCAASGRIFSMNAMGWYRQAPGKERELVAGIRKRGGSTYYADSVKGRFTISRDNAKNTVYLQMNSLKPEDTAVYFCAAQPALTYRFYYLGQGTQVTVSS,high polyreactivity
7,QVQLVESGGGLVQAGGSLRLSCAASGRIFSNNAMGWYRQAPGKERELVAAIDSSGDSTNYADSVKGRFTISRDNAKNTVYLQMNSLKPEDTAVYYCNARQSGRRVWQYLYGYWGQGTQVTVSS,high polyreactivity
8,QVQLVESGGGLVQAGGSLRLSCAASGRIFSNYAMGWYRPAPGKESELVAAISRGGGRTFYADSVTGRFTISRDNAKNTVYLQKNSLKPEDTAVYYCATRSYYVKGDYWGQATQVTVSS,high polyreactivity
9,QVQLVESGGGLVQAGGSLRLSCAASGRIFSPYAMGWYRQATGKERELVAAIDWDGGGTYYADSVKGRFTISRDNAKNTVYLQMNSLKPEDTAVYYCAAETDLANGTSPSDYWGQGTQVTVSS,low polyreactivity
10,QVQLVESGGGLVQAGGSLRLSCAASGRIFSRNAMGRYSQAPGKERELVAAIRWRSGSTYYADSVKGRFTISRDNAKNTVYLQMNSLNPEDTAVYYCAASGPGYSRYTQYDSWGQGTQVTESS,high polyreactivity
11,QVQLVESGGGLVQAGGSLRLSCAASGRIFSRNTMGWYRQATGKEREFVAAISQSGGRTYYADSVKGRFTISRDNAKNNVYLQMNSLKPEDTAVYYCAARSRGYDIRYGYWGQGTQVTVSS,high polyreactivity
12,QVQLVESGGGLVQAGGSLRLSCAASGRIFSRYALGWYSPEPGKERELVAAIRSNGGRTYYADSVKGRFTISRDNAKNTVYLQMNSLKPEDTAVYYCAAAGGGKVSYRDYDYWGQGTQVTVSS,high polyreactivity
13,QVQLVESGGGLVQAGGSLRLSCAASGRIFSRYAMGLYRQAPGKERELVAAITWRGGSTYYADSVKGRFTISRDNAKNTVYLEMNSLKPEDSAVYYCAKYGSGGRQLRSDSWVQGTQVTVSS,high polyreactivity
14,QVQLVESGGGLVQAGGSLRLSCAASGRIFSRYAMGRYRQAPGKERELVAAITQSGTSTYYADSVKGRFTISRDNAKNTVYLQMNSLKPEDTAVYYCNAYRQYRYDYWGQGTQVTVSS,low polyreactivity
15,QVQLVESGGGLVQAGGSLRLSCAASGRIFSRYAMGWYRQAPGKERELVATISSGGGTYYADSVKGRFTISRDNAKNTVYLQMNSLKPEDTAVYYCAVQVWYGRYYYWGQGTQVTVSS,high polyreactivity
16,QVQLVESGGGLVQAGGSLRLSCAASGRIFSRYAMGWYRQAPGKERELVATITRRGGSTSYADSVKGRFTISRDNAKNTVYLQMNSLKPEDTAVYYCAAQSFYGIYYGQQDYDYWGQGTQVTVSS,high polyreactivity
17,QVQLVESGGGLVQAGGSLRLSCAASGRIFSRYTMGWYRQAPGKERELVAAISYSGGRTYYADSVKGRFTISRDNAKNTVYLQMYSLKPEDTAVYYCAAPRSVVGAYGFYYWGQGTQVTVSS,high polyreactivity
18,QVQLVESGGGLVQAGGSLRLSCAASGRIFSRYTMGWYRQAPGKERELVAGITRGGGSTYYADSVKGRFTISRDNAKNTVYLQMNSLKPEDTAVYYCAATFAYHDGDYWGQGTQVTVSS,low polyreactivity
19,QVQLVESGGGLVQAGGSLRLSCAASGRIFSSNAMGWYRQAPGKEREFVAAISWRTGSTYYADSVKGRFTISRDNAKNTVYLQMNSLKPEDTAVYYCAAVYWTFWGTIATRYDYWGQGTQVTVSS,high polyreactivity
20,QVQLVESGGGLVQAGGSLRLSCAASGRIFSSNAMGWYRQAPGKERELVAAITSGGSTYADSVKGRFTISRDNAKNTVYLQMNSLKPEDTAVYYCAKDGPGGGTRIYDYWGHGTQVTVSS,high polyreactivity
21,QVQLVESGGGLVQAGGSLRLSCAASGRIFSSYAMGWSRQAPGKERELVAAISSSGGNTYYADSVKGRFTISRDNAKNTVYLQMNSLKPEDTAVYYCNTRWVHRDWYDYWGQGTQVTVSS,high polyreactivity
22,QVQLVESGGGLVQAGGSLRLSCAASGRIFSSYAMGWYRQAPGKERELVAGITRGGSTYADSVKGRFTISRDNAKNTVYLQMNSLKPEDTAVYYCAADALIATPSWGKYNYWGQGTQVTVSS,high polyreactivity

row,Sequence,polyreactivity (PSR sort gate)
1,QVQLVESGGGLVQAGGSLRLSCAASGRIFSSYAMGWYRQAPGKERELVAVISQRGGSTSYADSVKGRFTISRDNAKNTVYLQMNSLKPEDTAVYYCARRPGKGNNYWGQGTQVTVSS,high polyreactivity
2,QVQLVESGGGLVQAGGSLRLSCAASGRIFSSYTMGWYRQAPGKERELVAAISWRGGSTYYADSVKGRFTISRDNAKNTVYLQMNSLKPEDTAVYYCAADSRSDPGDYWGQGNQVTVSS,low polyreactivity
3,QVQLVESGGGLVQAGGSLRLSCAASGRIFSTNAMGWYRQAPGKERELVATIRTSGGSTYYADSVKGRFTISRDNAKNTVYLQMNSLKPEDTAVYYCAARRFLHYTTYYGTGRYDYWGQGTQVTVSS,low polyreactivity
4,QVQLVESGGGLVQAGGSLRLSCAASGRIFSTNAMGWYRQAPWKERELVASISKSGGSTYYADSVKGRFTISRDNAKNTVYLQMNSLKPEDTAVYYCAASSYSTSYIRGDYWGQGTQVTVSS,low polyreactivity
5,QVQLVESGGGLVQAGGSLRLSCAASGRIFSTYAMGWYRQAPGKERELVAAINSIGGRTYYADSVKGRFTISRDNAKNTVYLQMNSLKPEDTAVYYCAAGYRTRRGLGYYYWGQGTQVTVSS,high polyreactivity
6,QVQLVESGGGLVQAGGSLRLSCAASGRIFSTYTMGWYSQAPGKDRELVARSSWSAGRTYYADSVKGRFTISRDNAKNSVYLQMNSLKPEETAVYYCAADGYTQRGYDYWGQGTQVTVSS,high polyreactivity
7,QVQLVESGGGLVQAGGSLRLSCAASGRIFSYNAMGWYRQAPGKERELFAAISSDGSTYYADSVKGRFTISRDNAKNTVYLEMNSLKPEDTAVYYCAARQVVWFVYTTAQVGSYKVNYWGQGTQVNVSS,low polyreactivity
8,QVQLVESGGGLVQAGGSLRLSCAASGRIFSYNAMGWYRQAPGKERELVASISYSGTSTYYADSVKGRFTISRDNAKKTVYLQMNSLKPEDTAVYYCAALSRRRFGYWGQGTQVTVSS,high polyreactivity
9,QVQLVESGGGLVQAGGSLRLSCAASGRIFSYNTLMRWYRQAPGKERELVAAITFSSASTYYADSVKGRFTISRDNAKNTVYLQMNSLKPEDTAVYYCAAAIRSQSSKYYYWGQGTQVTVSS,low polyreactivity
10,QVQLVESGGGLVQAGGSLRLSCAASGRIFSYYAMGWYRQAPGKEREFVATITYAGGSTYYADSVKGRFTISRDNAKNTVYFQMNSLKPEDTAVYYCAARGYSYRGWRMDYWGQGTQVTVSS,high polyreactivity
11,QVQLVESGGGLVQAGGSLRLSCAASGRIFSYYAMGWYRQAPGKERELVAAINSDGSTDYADSVKGRFTISRDNAKNTVYLQMNSLKPEDTAVYYCAKVWSLGPTGFRAYVRVWYYYWGVGTQVTVSS,low polyreactivity
12,QVQLVESGGGLVQAGGSLRLSCAASGRIFSYYAMGWYRQAPGKERELVAAISWNGGSTYYADSVKGRFTISRDNAKNTVYLQMNSLKPEDTAVYYCIRLGYRTGYERDYWGQGTQVTVSS,high polyreactivity
13,QVQLVESGGGLVQAGGSLRLSCAASGRIFSYYAMGWYRQAPGKERELVAAISWSGGSTYYADSVKGRFTISRDNAKNTVYLQMNSLKPEDTAVYYCAAGVHWDRGDYWGQGTQVTVSS,low polyreactivity
14,QVQLVESGGGLVQAGGSLRLSCAASGRIFSYYAMGWYRQAPGKERELVAAITSGGRTNYADSVKGRFTISRDNAKNTVYLQMNSLNPEDTAVYYCAAIFGYGSTWCRWGKDDYWGQGTQVTVSS,high polyreactivity
15,QVQLVESGGGLVQAGGSLRLSCAASGRIFSYYARGWYRQAPGKERELVATINSGGSTNYADSVKGRFTISRDNAKNTVYLLMNSLKPEDTAVYYCAASPVWWYDYWGQGTQVTVSS,low polyreactivity
16,QVQLVESGGGLVQAGGSLRLSCAASGRIFSYYTMGWYRQAPGKERELVAAITSGDSTNYADSVKGRFTISRDNAKNTVYLQMNSLKPEDNAVYYCNARYSWWRSRVGSSHRPDGYWGQGTQVTVSS,high polyreactivity
17,QVQLVESGGGLVQAGGSLRLSCAASGRIFTAYDMGWYRQAPGKERELVAAITRSSGSTYYADSVKGRFTISRDNAKNTVYLQMNSLKGEDTAVYYCATDGEFWGYDSWGQGTQVTVSS,low polyreactivity
18,QVQLVESGGGLVQAGGSLRLSCAASGRIFTAYYAMGWYRQAPGKERELVASISSSGTYTYADSVKGRFTISRDNAKNTVYLQMNSLKPEDTAVYYCATRKLRTRRYDYGYCGQGTQVTVSS,low polyreactivity
19,QVQLVESGGGLVQAGGSLRLSCAASGRIFTDNAMGWYRQAPGKERELVAAISWDGSSTSYADSVKGRFTISRDNAKNTVYLQMNSLKPEDTAVYDCAAVLYSGLYWYRLDYWGQGTRVTVSS,low polyreactivity
20,QVQLVESGGGLVQAGGSLRLSCAASGRIFTFYAMGWYRQAPGKERELVAVITTGTSTTYADSVKGRVTISRDNAKNTVYLQMNSLKPEDTAVYYCAVESWSRVQGWLAHNYDYWGQGTQVTVSS,low polyreactivity
21,QVQLVESGGGLVQAGGSLRLSCAASGRIFTGNAMGWNRQAPGKERELVAAISASGSSTYYADSVKGRFTISRDNAKNTVYLQMNRLKPDDTAVYYCAADGWYGYYYWGQGTQVTVSS,high polyreactivity
